Results reported in patent US20210063414A1 (Dana-Farber, published 2021).

Tests used:
[1] = molecular target: T1, Integrin beta-1 (Itgb1) of MLO-Y4 cells (mouse, UniProt P09055 21-798); test: DTSSP cross-linking of his-tag ligand on MLO-Y4 cells, his-tag pull-down, TMT quantitative mass spectrometry; ratio to his-tag adipsin control
T1 construct: whole, on cells; Endogenous protein of the mouse osteocyte-like cell line, cross-linked on intact cells; also called β1 integrin; integrin β1

[2] = molecular target: T2, Integrin beta-5 (Itgb5) of MLO-Y4 cells (mouse, UniProt O70309 24-798); test: DTSSP cross-linking on MLO-Y4 cells, his-tag pull-down, TMT mass spectrometry; irisin channel
T2 construct: whole, on cells; also called ITB5_MOUSE
T2 sequence (looked up): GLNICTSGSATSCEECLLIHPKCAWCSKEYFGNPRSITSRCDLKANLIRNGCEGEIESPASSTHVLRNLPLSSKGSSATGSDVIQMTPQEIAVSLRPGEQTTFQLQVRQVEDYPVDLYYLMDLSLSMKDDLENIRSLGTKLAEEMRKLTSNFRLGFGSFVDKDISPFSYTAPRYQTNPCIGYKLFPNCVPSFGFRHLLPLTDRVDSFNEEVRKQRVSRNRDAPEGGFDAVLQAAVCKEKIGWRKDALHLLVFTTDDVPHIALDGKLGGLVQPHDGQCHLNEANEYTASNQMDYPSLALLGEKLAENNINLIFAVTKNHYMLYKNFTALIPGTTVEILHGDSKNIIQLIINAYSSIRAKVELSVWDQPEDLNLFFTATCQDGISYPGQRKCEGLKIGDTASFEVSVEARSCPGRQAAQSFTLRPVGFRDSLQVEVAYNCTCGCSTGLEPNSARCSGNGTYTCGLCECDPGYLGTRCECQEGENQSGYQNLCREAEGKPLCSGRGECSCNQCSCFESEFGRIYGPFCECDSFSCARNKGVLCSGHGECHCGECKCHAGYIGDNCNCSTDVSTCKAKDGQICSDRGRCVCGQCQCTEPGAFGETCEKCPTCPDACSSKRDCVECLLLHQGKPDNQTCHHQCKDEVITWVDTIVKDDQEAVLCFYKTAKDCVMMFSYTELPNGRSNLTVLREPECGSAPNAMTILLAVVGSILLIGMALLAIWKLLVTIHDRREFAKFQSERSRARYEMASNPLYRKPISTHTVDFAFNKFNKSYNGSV

[3] = molecular target: T3, Integrin alpha-V (Itgav) of MLO-Y4 cells (mouse, UniProt P43406 31-1044); test: as above
T3 construct: whole, on cells
T3 sequence (looked up): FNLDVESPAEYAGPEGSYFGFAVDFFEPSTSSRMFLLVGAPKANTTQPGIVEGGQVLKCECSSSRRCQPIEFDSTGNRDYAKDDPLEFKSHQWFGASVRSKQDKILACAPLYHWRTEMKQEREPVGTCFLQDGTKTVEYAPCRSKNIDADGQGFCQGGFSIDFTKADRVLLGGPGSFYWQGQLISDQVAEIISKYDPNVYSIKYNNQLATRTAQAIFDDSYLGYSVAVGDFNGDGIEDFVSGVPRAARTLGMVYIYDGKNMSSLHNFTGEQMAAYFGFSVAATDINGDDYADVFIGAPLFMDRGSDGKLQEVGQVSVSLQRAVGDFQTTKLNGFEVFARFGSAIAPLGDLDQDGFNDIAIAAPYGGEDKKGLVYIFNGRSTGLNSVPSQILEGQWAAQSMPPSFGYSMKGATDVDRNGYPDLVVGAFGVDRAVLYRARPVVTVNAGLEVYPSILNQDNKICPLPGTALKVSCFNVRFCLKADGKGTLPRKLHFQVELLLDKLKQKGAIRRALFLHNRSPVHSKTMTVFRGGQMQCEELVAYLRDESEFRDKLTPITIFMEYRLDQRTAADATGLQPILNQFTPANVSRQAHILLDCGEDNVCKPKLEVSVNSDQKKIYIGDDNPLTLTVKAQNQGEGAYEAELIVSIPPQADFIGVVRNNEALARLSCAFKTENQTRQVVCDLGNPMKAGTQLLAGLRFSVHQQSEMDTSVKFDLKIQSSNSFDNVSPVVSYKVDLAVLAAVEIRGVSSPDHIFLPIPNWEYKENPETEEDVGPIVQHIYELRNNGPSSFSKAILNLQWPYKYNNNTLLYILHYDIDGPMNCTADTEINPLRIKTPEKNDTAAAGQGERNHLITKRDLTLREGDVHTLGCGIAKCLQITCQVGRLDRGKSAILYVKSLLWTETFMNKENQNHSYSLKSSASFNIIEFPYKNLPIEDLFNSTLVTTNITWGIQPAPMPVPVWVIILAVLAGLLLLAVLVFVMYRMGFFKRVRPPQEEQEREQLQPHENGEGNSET

[4] = molecular target: T1, Integrin beta-1 (Itgb1) of MLO-Y4 cells; test: as above
[5] = molecular target: T2, Integrin beta-5 (Itgb5) of MLO-Y4 cells; test: DTSSP cross-linking on MLO-Y4 cells, his-tag pull-down, TMT mass spectrometry; ratio to his-tag adipsin control
[6] = molecular target: T3, Integrin alpha-V (Itgav) of MLO-Y4 cells; test: as above

T1 sequence (P09055 21-798): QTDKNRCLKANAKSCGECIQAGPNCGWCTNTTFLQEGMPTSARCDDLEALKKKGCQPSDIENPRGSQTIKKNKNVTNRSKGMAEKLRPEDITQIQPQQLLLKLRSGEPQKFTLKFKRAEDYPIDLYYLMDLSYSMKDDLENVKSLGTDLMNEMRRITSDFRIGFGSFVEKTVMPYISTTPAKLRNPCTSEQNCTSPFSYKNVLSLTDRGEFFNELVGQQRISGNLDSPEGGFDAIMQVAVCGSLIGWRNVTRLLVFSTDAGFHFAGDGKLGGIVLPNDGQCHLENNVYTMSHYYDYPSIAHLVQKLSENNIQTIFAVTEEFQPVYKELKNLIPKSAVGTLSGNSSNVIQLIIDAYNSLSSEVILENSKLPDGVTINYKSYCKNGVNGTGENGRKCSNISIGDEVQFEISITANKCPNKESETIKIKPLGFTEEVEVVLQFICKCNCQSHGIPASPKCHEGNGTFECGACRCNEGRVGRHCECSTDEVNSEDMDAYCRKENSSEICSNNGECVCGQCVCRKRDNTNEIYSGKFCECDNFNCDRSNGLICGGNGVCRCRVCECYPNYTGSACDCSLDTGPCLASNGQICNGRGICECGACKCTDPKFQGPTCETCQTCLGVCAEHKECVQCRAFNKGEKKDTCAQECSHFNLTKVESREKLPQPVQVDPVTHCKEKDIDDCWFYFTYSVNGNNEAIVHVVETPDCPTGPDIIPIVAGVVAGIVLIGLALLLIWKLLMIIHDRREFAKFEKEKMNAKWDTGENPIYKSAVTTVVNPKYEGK

B1: His-tag recombinant irisin (irisin (human/mouse) with a C-terminal 10 his tag, produced in HEK293 cells) (ligand)
chain: DSPSAPVNVTVRHLKANSAVVSWDVLEDEVVIGFAISQQKKDVRMLRFIQEVNTTTRSCALWDLEEDTEYIVHVQAISIQGQSPASEPVLFKTPREAEKMASKNKDEVTMKE
notes: Made in mammalian cells, glycosylated; Used in cell culture and cross-linking experiments; also called 10 His-tag irisin; his-tag irisin; not shown: C-terminal 10 his tag
For B1, the “irsin/adipsin (TMT ratio)” value [1] was 3.44, the “summed signal-to-noise value for TMT channel” value (“summed signal-to-noise value” for short) [2] was 215 and the “summed signal-to-noise value” value [3] was 60.6. For the same binder, the “summed signal-to-noise value” value [4] was 858, the “irisin/adipsin (TMT ratio)” value [5] was 1.45 and the “irisin/adipsin (TMT ratio)” value [6] was 1.11.
